The results in this text go back to patent US20200399308A1, “COMPOUNDS AND METHODS FOR ELICITING ANTIMICROBIAL ACTIVITY” (Technion Research & Development Foundation Limited, priority 2018, published 2020).

In test [1] the test system is Klebsiella pneumoniae 1287. Put plainly: Serum survival assay. The following applies: mouse serum; 13 μM lactoferrin with 10 μM Compound B. The format is cell-based. The protocol:
(§1) Serum survival assays were performed using fresh serum from normal mice or human serum from the Israel Blood Bank; samples were pooled and stored in aliquots at −80° C. until use. Time-dependent killing was determined in a final volume of 125 μL consisting of 112.5 μL of serum containing either a tested compound, egg white lysozyme (Amresco), lactoferrin (Vivinal lactoferrin FD; DMV International, Delhi, N.Y.), anti-murine C5/C5a antibody (25 μg/mL; ab194637; Abcam), or their combination, as specified. These solutions were supplemented with 12.5 μL of bacteria suspended in PBS at the desired concentration. After the specified time points of exposure, cultures were subjected to serial 10-fold dilutions in saline (0.85% NaCl) and plated for bacterial enumeration after incubation at 37° C. for an additional 24 hours. In heat-treated experiments, sera were incubated at 56° C. for 30 minutes for protein inactivation. Data were obtained from 3 independent experiments.

The next test deals with Escherichia coli 25922. The experiment in a line: Serum survival assay. It counts as cell-based. The following applies: mouse serum; 13 μM lactoferrin with 10 μM Compound B. The method, then:
as §1

B1: lactoferrin: host defense antimicrobial protein (Vivinal lactoferrin FD) (protein, UniProt P24627 20-708, looked up)
Lactotransferrin: APRKNVRWCTISQPEWFKCRRWQWRMKKLGAPSITCVRRAFALECIRAIAEKKADAVTLDGGMVFEAGRDPYKLRPVAAEIYGTKESPQTHYYAVAVVKKGSNFQLDQLQGRKSCHTGLGRSAGWIIPMGILRPYLSWTESLEPLQGAVAKFFSASCVPCIDRQAYPNLCQLCKGEGENQCACSSREPYFGYSGAFKCLQDGAGDVAFVKETTVFENLPEKADRDQYELLCLNNSRAPVDAFKECHLAQVPSHAVVARSVDGKEDLIWKLLSKAQEKFGKNKSRSFQLFGSPPGQRDLLFKDSALGFLRIPSKVDSALYLGSRYLTTLKNLRETAEEVKARYTRVVWCAVGPEEQKKCQQWSQQSGQNVTCATASTTDDCIVLVLKGEADALNLDGGYIYTAGKCGLVPVLAENRKSSKHSSLDCVLRPTEGYLAVAVVKKANEGLTWNSLKDKKSCHTAVDRTAGWNIPMGLIVNQTGSCAFDEFFSQSCAPGADPKSRLCALCAGDDQGLDKCVPNSKEKYYGYTGAFRCLAEDVGDVAFVKNDTVWENTNGESTADWAKNLNREDFRLLCLDGTRKPVTEAQSCHLAVAPNHAVVSRSDRAAHVKQVLLHQQALFGKNGKNCPDKFCLFKSETKNLLFNDNTECLAKLGGRPTYEEYLGTEYVTAIANLKKCSTSPLLEACAFLTR
On to B1, for which the “sensitization by Compound B to lactoferrin” value (in test [1]; in the test on Escherichia coli 25922) was “no significant sensitization” each time.
